This passage reports kon and Kd results from PMC4040282 (Physical chemistry chemical physics : PCCP, 2014).

Assay [1] concerns the target T1, N-terminal hexahistidine-NFκB (His6-p50(39-350)/RelA(19-321)) heterodimer (UniProt P25799 39-350; Q04207 19-321). Description: stopped-flow fluorescence.
The target in assay [2] is (p50(248-350)/RelA(190-321)) heterodimer, biotinylated (murine, UniProt P25799 248-350; Q04207 190-321, biotin PEO maleimide (on the added N-terminal cysteine)). Nature of the assay: SPR.
Assay [3] deals with T1, N-terminal hexahistidine-NFκB …. Description: stopped-flow fluorescence. This is another data set of the same source.

Positions count from the first letter of the chain named. Names may count otherwise. Read-outs that look alike come from different tables or passages of the source.

As usually defined, the kon is a measure of how fast the partners come together. A higher kon goes with fast association. What is called Kd is the free concentration of one partner at which half of the binding sites on the other are occupied at equilibrium, for simple one-to-one binding. A lower Kd goes with a tighter complex.

B1: Human wild-type IκBα(67-287) (domain or fragment, UniProt P25963 67-287, looked up)
chain: KQQLTEDGDSFLHLAIIHEEKALTMEVIRQVKGDLAFLNFQNNLQQTPLHLAVITNQPEIAEALLGAGCDPELRDFRGNTPLHLACEQGCLASVGVLTQSCTTPHLHSILKATNYNGHTCLHLASIHGYLGIVELLVSLGADVNAQEPCNGRTALHLAVDLQNPDLVSLLLKCGADVNRVTYQGYSPYQLTWGRPSTRIQQQLGQLTLENLQMLPESEDEE
The molecule B1 yielded a kon in assay [1] of 1.4e+07 M⁻¹ s⁻¹. In assay [2], this molecule came in with a Kd of 0.172 ± 0.004 nM.

B2: IκBα(67-287) P261F (domain or fragment, human, UniProt P25963 67-287, looked up)
chain: B1 chain with P195F
In assay [1], B2 showed a kon of 1.4e+07 M⁻¹ s⁻¹. This molecule also returned a Kd in assay [2] of 0.462 ± 0.008 nM.

B3: IκBα(67-287) E282W (domain or fragment, human, UniProt P25963 67-287, looked up)
chain: B1 chain with E216W
For the molecule B3, the results for the on-rate constant (kon) in assay [1] and in assay [3] were 1.1e+07 M⁻¹ s⁻¹ and 3.8e+06 M⁻¹ s⁻¹, respectively. In addition, the affinity in assay [2], expressed as Kd, was 0.155 ± 0.014 nM.
